Here are results for eight molecules from patent US20150203577A1 (Chugai, published 2015).

One test addresses T1, mouse FcγRII (mouse, UniProt P08101 30-210).
T1 construct: also called mFcγRII; mFcgRII
T1 sequence: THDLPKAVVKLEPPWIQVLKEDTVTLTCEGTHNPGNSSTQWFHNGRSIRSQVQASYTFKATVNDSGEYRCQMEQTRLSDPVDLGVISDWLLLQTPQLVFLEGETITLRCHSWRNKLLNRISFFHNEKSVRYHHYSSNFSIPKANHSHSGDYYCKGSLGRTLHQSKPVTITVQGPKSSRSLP
The test is described as follows: SPR Biacore T200, KD ratio. An excerpt: (§1) The antibody H chain variable region used was the variable region H237 (SEQ ID NO: 1) of the H chain VH3-IgG1 of the anti-IL-6 receptor antibody Fv4-IgG1 described in WO2009/125825. The antibody L chain commonly used was the L chain MRAL-k0 (SEQ ID NO: 2) of the anti-IL-6 receptor antibody tocilizumab. […] The resulting variant group was designated as MB110 variants. These variants were expressed and purified by the method of Reference Example 1 and evaluated for their binding to mFcγRII and mFcγRIII by the method of Reference Example 2 using Biacore T200.
(§2) Each altered antibody was analyzed for its interaction with each Fcγ receptor prepared above using Biacore T100 (GE Healthcare Japan Corp.), Biacore T200 (GE Healthcare Japan Corp.), Biacore A100, or Biacore 4000. The running buffer used was HBS-EP+ (GE Healthcare Japan Corp.). The assay temperature was set to 25° C. The sensor chips used were chips prepared by immobilizing Protein L (ACTIGEN or BioVision) onto Series S Sensor Chip CM5 (GE Healthcare Japan Corp.) or Series S Sensor Chip CM4 (GE Healthcare Japan Corp.) by the amine coupling method.
(§3) In order to calculate the KD value of each altered antibody for FcγR, kinetic analysis was conducted according to the following method: first, the antibody of interest was captured onto any of these chips and allowed to interact with mFcγR diluted with a running buffer. For the obtained sensorgram, the assay results were globally fit into the 1:1 Langmuir binding model using Biacore Evaluation Software to calculate an association rate constant ka (L/mol/s) and a dissociation rate constant kd (1/s). From these values, the dissociation constant KD (mol/L) was calculated.

A further test addresses T2, mouse FcγRIII (mouse, UniProt P08508 31-215).
T2 construct: also called mFcγRIII; mFcgRIII
T2 chain: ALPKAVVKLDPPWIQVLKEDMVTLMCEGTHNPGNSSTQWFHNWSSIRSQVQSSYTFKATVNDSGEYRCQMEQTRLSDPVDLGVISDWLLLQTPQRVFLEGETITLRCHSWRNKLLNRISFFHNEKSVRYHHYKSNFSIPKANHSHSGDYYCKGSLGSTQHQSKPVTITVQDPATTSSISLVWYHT
Put plainly: SPR Biacore T200, KD ratio.
Text: as §1, §2, §3
Background: SPR reads the build-up and loss of mass on a sensor chip optically.

B1: MB294 (antibody, mouse IgG1, kappa)
heavy: QVQLQESGPGLVKPSETLSLTCAVSGHSISHDHAWSWVRQPPGEGLEWIGFISYSGITNYNPSLQGRVTISRDNSKNTLYLQMNSLRAEDTAVYYCARSLARTTAMDYWGEGTLVTVSSAKTTPPSVYPLAPGSAAQTNSMVTLGCLVKGYFPEPVTVTWNSGSLSSGVHTFPAVLQSDLYTLSSSVTVPSSTWPSETVTCNVAHPASSTKVDKKIVPRDCGCKPCICTVPEVSDEFIFPPKPKDVLTITLTPKVTCVVVDISKDDPEVQFSWFVDDVEVHTAQTQPREEQFNSTFRSVSELPIMHQDWLNGKEFKCRVNSAAFPAPIEKTISKTKGRPKAPQVYTIPPPKEQMAKDKVSLTCMITDFFPEDITVEWQWNGQPAENYKNTQPIMDTDGSYFVYSKLNVQKSNWEAGNTFTCSVLHEGLHNHHTEKSLSHSPGK
light: not shown
notes: copies: 2 + 2
With B1, in the test with mouse FcγRII, the “Relative mFcγRII-binding activity (MB110 = 1)” value stood at 0.62 fold and the “relative mFcγRII-binding activity (mIgG1 = 1)” value was found to be 7.6 fold. Also, in the test with mouse FcγRIII, the “Relative mFcγRIII-binding activity (MB110 = 1)” value came to 0.47 fold and the “relative mFcγRIII-binding activity (mIgG1 = 1)” value was 1.9 fold.

B2: MB296 (antibody, mouse IgG1, kappa)
heavy: QVQLQESGPGLVKPSETLSLTCAVSGHSISHDHAWSWVRQPPGEGLEWIGFISYSGITNYNPSLQGRVTISRDNSKNTLYLQMNSLRAEDTAVYYCARSLARTTAMDYWGEGTLVTVSSAKTTPPSVYPLAPGSAAQTNSMVTLGCLVKGYFPEPVTVTWNSGSLSSGVHTFPAVLQSDLYTLSSSVTVPSSTWPSETVTCNVAHPASSTKVDKKIVPRDCGCKPCICTVPEVSDVFIFPPKPKDVLTITLTPKVTCVVVDIAKDDPEVQFSWFVDDVEVHTAQTQPREEQFNSTFRSVSELPIMHQDWLNGKEFKCRVNSAAFPAPIEKTISKTKGRPKAPQVYTIPPPKEQMAKDKVSLTCMITDFFPEDITVEWQWNGQPAENYKNTQPIMDTDGSYFVYSKLNVQKSNWEAGNTFTCSVLHEGLHNHHTEKSLSHSPGK
light: not shown
notes: copies: 2 + 2
Take B2: in the test with mouse FcγRII, the “Relative mFcγRII-binding activity (MB110 = 1)” value was found to be 1.71 fold and the “relative mFcγRII-binding activity (mIgG1 = 1)” value amounted to 21 fold. Also, in the test with mouse FcγRIII, the “Relative mFcγRIII-binding activity (MB110 = 1)” value came out at 1.39 fold and the “relative mFcγRIII-binding activity (mIgG1 = 1)” value was 5.6 fold.

B3: MB295 (antibody, mouse IgG1, kappa)
heavy: QVQLQESGPGLVKPSETLSLTCAVSGHSISHDHAWSWVRQPPGEGLEWIGFISYSGITNYNPSLQGRVTISRDNSKNTLYLQMNSLRAEDTAVYYCARSLARTTAMDYWGEGTLVTVSSAKTTPPSVYPLAPGSAAQTNSMVTLGCLVKGYFPEPVTVTWNSGSLSSGVHTFPAVLQSDLYTLSSSVTVPSSTWPSETVTCNVAHPASSTKVDKKIVPRDCGCKPCICTVPEVSDHFIFPPKPKDVLTITLTPKVTCVVVDISKDDPEVQFSWFVDDVEVHTAQTQPREEQFNSTFRSVSELPIMHQDWLNGKEFKCRVNSAAFPAPIEKTISKTKGRPKAPQVYTIPPPKEQMAKDKVSLTCMITDFFPEDITVEWQWNGQPAENYKNTQPIMDTDGSYFVYSKLNVQKSNWEAGNTFTCSVLHEGLHNHHTEKSLSHSPGK
light: not shown
notes: copies: 2 + 2
Regarding B3, in the test with mouse FcγRII, the “Relative mFcγRII-binding activity (MB110 = 1)” value was found to be 0.62 fold and the “relative mFcγRII-binding activity (mIgG1 = 1)” value amounted to 7.6 fold. In addition, in the test with mouse FcγRIII, the “Relative mFcγRIII-binding activity (MB110 = 1)” value turned out to be 0.42 fold and the “relative mFcγRIII-binding activity (mIgG1 = 1)” value was 1.7 fold.

B4: MB304 (antibody, mouse IgG1, kappa)
heavy: QVQLQESGPGLVKPSETLSLTCAVSGHSISHDHAWSWVRQPPGEGLEWIGFISYSGITNYNPSLQGRVTISRDNSKNTLYLQMNSLRAEDTAVYYCARSLARTTAMDYWGEGTLVTVSSAKTTPPSVYPLAPGSAAQTNSMVTLGCLVKGYFPEPVTVTWNSGSLSSGVHTFPAVLQSDLYTLSSSVTVPSSTWPSETVTCNVAHPASSTKVDKKIVPRDCGCKPCICEVPEVSDHFIFPPKPKDVLTITLTPKVTCVVVDISKDDPEVQFSWFVDDVEVHTAQTQPREEQFNSTFRSVSELPIMHQDWLNGKEFKCRVNSAAFPAPIEKTISKTKGRPKAPQVYTIPPPKEQMAKDKVSLTCMITDFFPEDITVEWQWNGQPAENYKNTQPIMDTDGSYFVYSKLNVQKSNWEAGNTFTCSVLHEGLHNHHTEKSLSHSPGK
light: not shown
notes: copies: 2 + 2
As for B4, in the test with mouse FcγRII, the “Relative mFcγRII-binding activity (MB110 = 1)” value is 1.11 fold and the “relative mFcγRII-binding activity (mIgG1 = 1)” value is 13.7 fold. In the test with mouse FcγRIII, the “Relative mFcγRIII-binding activity (MB110 = 1)” value was 0.5 fold and the “relative mFcγRIII-binding activity (mIgG1 = 1)” value stood at 2 fold.

B5: MB303 (antibody, mouse IgG1, kappa)
heavy: QVQLQESGPGLVKPSETLSLTCAVSGHSISHDHAWSWVRQPPGEGLEWIGFISYSGITNYNPSLQGRVTISRDNSKNTLYLQMNSLRAEDTAVYYCARSLARTTAMDYWGEGTLVTVSSAKTTPPSVYPLAPGSAAQTNSMVTLGCLVKGYFPEPVTVTWNSGSLSSGVHTFPAVLQSDLYTLSSSVTVPSSTWPSETVTCNVAHPASSTKVDKKIVPRDCGCKPCICEVPEVSDEFIFPPKPKDVLTITLTPKVTCVVVDISKDDPEVQFSWFVDDVEVHTAQTQPREEQFNSTFRSVSELPIMHQDWLNGKEFKCRVNSAAFPAPIEKTISKTKGRPKAPQVYTIPPPKEQMAKDKVSLTCMITDFFPEDITVEWQWNGQPAENYKNTQPIMDTDGSYFVYSKLNVQKSNWEAGNTFTCSVLHEGLHNHHTEKSLSHSPGK
light: not shown
notes: copies: 2 + 2
For B5, in the test with mouse FcγRII, the “Relative mFcγRII-binding activity (MB110 = 1)” value worked out at 0.64 fold and the “relative mFcγRII-binding activity (mIgG1 = 1)” value turned out to be 7.8 fold. In the test with mouse FcγRIII, the “Relative mFcγRIII-binding activity (MB110 = 1)” value was 0.32 fold and the “relative mFcγRIII-binding activity (mIgG1 = 1)” value is 1.3 fold.

B6: MB301 (antibody, mouse IgG1, kappa)
heavy: QVQLQESGPGLVKPSETLSLTCAVSGHSISHDHAWSWVRQPPGEGLEWIGFISYSGITNYNPSLQGRVTISRDNSKNTLYLQMNSLRAEDTAVYYCARSLARTTAMDYWGEGTLVTVSSAKTTPPSVYPLAPGSAAQTNSMVTLGCLVKGYFPEPVTVTWNSGSLSSGVHTFPAVLQSDLYTLSSSVTVPSSTWPSETVTCNVAHPASSTKVDKKIVPRDCGCKPCICEVEEVSDVFIFPPKPKDVLTITLTPKVTCVVVDISKDDPEVQFSWFVDDVEVHTAQTQPREEQFNSTFRSVSELPIMHQDWLNGKEFKCRVNSAAFPAPIEKTISKTKGRPKAPQVYTIPPPKEQMAKDKVSLTCMITDFFPEDITVEWQWNGQPAENYKNTQPIMDTDGSYFVYSKLNVQKSNWEAGNTFTCSVLHEGLHNHHTEKSLSHSPGK
light: not shown
notes: copies: 2 + 2
Turning to B6, in the test with mouse FcγRII, the “Relative mFcγRII-binding activity (MB110 = 1)” value was 3.52 fold and the “relative mFcγRII-binding activity (mIgG1 = 1)” value was found to be 43.2 fold. In addition, in the test with mouse FcγRIII, the “Relative mFcγRIII-binding activity (MB110 = 1)” value was determined as 1.16 fold and the “relative mFcγRIII-binding activity (mIgG1 = 1)” value is 4.6 fold.

B7: MB300 (antibody, mouse IgG1, kappa)
heavy: QVQLQESGPGLVKPSETLSLTCAVSGHSISHDHAWSWVRQPPGEGLEWIGFISYSGITNYNPSLQGRVTISRDNSKNTLYLQMNSLRAEDTAVYYCARSLARTTAMDYWGEGTLVTVSSAKTTPPSVYPLAPGSAAQTNSMVTLGCLVKGYFPEPVTVTWNSGSLSSGVHTFPAVLQSDLYTLSSSVTVPSSTWPSETVTCNVAHPASSTKVDKKIVPRDCGCKPCICEDPEVSDVFIFPPKPKDVLTITLTPKVTCVVVDISKDDPEVQFSWFVDDVEVHTAQTQPREEQFNSTFRSVSELPIMHQDWLNGKEFKCRVNSAAFPAPIEKTISKTKGRPKAPQVYTIPPPKEQMAKDKVSLTCMITDFFPEDITVEWQWNGQPAENYKNTQPIMDTDGSYFVYSKLNVQKSNWEAGNTFTCSVLHEGLHNHHTEKSLSHSPGK
light: not shown
notes: copies: 2 + 2
As to B7, in the test with mouse FcγRII, the “Relative mFcγRII-binding activity (MB110 = 1)” value is 4.25 fold and the “relative mFcγRII-binding activity (mIgG1 = 1)” value was found to be 52.3 fold. Besides, in the test with mouse FcγRIII, the “Relative mFcγRIII-binding activity (MB110 = 1)” value is 1.41 fold and the “relative mFcγRIII-binding activity (mIgG1 = 1)” value stood at 5.7 fold.

B8: MB299 (antibody, mouse IgG1, kappa)
heavy: QVQLQESGPGLVKPSETLSLTCAVSGHSISHDHAWSWVRQPPGEGLEWIGFISYSGITNYNPSLQGRVTISRDNSKNTLYLQMNSLRAEDTAVYYCARSLARTTAMDYWGEGTLVTVSSAKTTPPSVYPLAPGSAAQTNSMVTLGCLVKGYFPEPVTVTWNSGSLSSGVHTFPAVLQSDLYTLSSSVTVPSSTWPSETVTCNVAHPASSTKVDKKIVPRDCGCKPCICEAPEVSDVFIFPPKPKDVLTITLTPKVTCVVVDISKDDPEVQFSWFVDDVEVHTAQTQPREEQFNSTFRSVSELPIMHQDWLNGKEFKCRVNSAAFPAPIEKTISKTKGRPKAPQVYTIPPPKEQMAKDKVSLTCMITDFFPEDITVEWQWNGQPAENYKNTQPIMDTDGSYFVYSKLNVQKSNWEAGNTFTCSVLHEGLHNHHTEKSLSHSPGK
light: not shown
notes: copies: 2 + 2
B8: in the test with mouse FcγRII, the “Relative mFcγRII-binding activity (MB110 = 1)” value stood at 4.96 fold and the “relative mFcγRII-binding activity (mIgG1 = 1)” value worked out at 60.8 fold. For the same molecule, in the test with mouse FcγRIII, the “Relative mFcγRIII-binding activity (MB110 = 1)” value came to 1.61 fold and the “relative mFcγRIII-binding activity (mIgG1 = 1)” value was found to be 6.5 fold.
